In experiment [1] the target is T1, recombinant soluble integrin αvβ3 (UniProt P06756 31-987; P05106 27-718). The experiment in a line: SPR. In general terms: Surface plasmon resonance follows binding to a sensor surface in real time, without labels.
Experiment [2] concerns the target T1, recombinant soluble integrin αvβ3. The experiment in a line: SPR. The source holds these as a separate data set.
The target is the same in experiment [3]. The experiment in a line: ELISA.

Positions count from the first letter of the chain named. Numbers in names are those of the source. Where two headings read alike, the source gives them in different places.

T1 sequence (P06756 31-987, chain 1 of 2): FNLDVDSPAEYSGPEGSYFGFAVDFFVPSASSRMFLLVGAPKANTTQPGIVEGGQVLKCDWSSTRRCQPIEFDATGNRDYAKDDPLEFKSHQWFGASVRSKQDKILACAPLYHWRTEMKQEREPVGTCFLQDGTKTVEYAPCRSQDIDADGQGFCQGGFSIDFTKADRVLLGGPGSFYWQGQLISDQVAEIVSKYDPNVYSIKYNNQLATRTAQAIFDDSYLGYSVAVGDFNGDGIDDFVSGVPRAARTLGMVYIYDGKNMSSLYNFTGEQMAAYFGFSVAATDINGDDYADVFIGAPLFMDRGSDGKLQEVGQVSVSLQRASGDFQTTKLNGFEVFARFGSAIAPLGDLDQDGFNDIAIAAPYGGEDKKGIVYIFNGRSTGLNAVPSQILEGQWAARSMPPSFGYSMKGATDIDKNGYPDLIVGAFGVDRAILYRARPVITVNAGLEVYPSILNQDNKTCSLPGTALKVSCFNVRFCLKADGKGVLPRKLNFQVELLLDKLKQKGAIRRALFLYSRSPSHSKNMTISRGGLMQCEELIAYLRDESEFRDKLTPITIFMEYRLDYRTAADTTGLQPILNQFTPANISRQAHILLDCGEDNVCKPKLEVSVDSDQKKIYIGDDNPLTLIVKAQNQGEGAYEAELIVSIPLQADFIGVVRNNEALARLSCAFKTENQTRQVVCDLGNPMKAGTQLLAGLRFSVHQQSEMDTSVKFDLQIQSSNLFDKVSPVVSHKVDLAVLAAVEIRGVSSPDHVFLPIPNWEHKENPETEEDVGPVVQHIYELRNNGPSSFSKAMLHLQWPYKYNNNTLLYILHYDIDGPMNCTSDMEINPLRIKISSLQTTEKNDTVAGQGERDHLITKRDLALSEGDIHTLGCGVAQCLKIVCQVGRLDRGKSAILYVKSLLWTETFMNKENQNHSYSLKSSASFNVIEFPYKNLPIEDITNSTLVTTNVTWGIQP
T1 sequence (P05106 27-718, chain 2 of 2): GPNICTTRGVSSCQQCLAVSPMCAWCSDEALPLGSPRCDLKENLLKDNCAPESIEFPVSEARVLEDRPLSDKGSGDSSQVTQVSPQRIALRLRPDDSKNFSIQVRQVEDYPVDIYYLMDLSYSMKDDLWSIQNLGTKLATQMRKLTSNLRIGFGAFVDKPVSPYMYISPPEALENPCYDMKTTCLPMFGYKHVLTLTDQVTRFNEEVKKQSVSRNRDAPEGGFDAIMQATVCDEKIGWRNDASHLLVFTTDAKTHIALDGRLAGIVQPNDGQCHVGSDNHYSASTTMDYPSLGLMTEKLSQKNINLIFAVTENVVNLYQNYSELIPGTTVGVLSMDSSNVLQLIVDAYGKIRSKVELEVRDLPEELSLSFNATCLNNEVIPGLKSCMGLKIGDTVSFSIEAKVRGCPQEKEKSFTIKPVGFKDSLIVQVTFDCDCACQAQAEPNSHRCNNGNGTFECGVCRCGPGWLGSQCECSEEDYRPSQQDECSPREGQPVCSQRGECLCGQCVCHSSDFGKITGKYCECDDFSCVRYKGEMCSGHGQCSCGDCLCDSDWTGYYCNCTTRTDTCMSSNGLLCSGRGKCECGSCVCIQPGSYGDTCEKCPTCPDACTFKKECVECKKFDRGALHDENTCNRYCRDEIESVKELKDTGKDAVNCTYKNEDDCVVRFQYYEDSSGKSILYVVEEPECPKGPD

B1: chemokine domain of fractalkine (FKN-CD), wild type, 6His-tagged (domain or fragment, human)
chain: QHHGVTKCNITCSKMTSKIPVALLIHYQQNQASCGKRAIILETRQHRLFCADPKEQWVKDAMQHLDRQAAALTRNG
Regarding B1, the results for the Kd in experiment [1] and in experiment [2] were 6.9 nM and 11 nM, respectively.

B2: FKN-CD Lys54/Lys59 to Ala mutant (K54A/K59A) (domain or fragment, human)
chain: B1 chain with K54A, K59A
On to B2, for which the binding result in experiment [3] was “binds”.

B3: FKN-CD Arg47 to Ala mutant (R47A) (domain or fragment, human)
chain: B1 chain with R47A
B3: in experiment [3], the binding result is on record as “binds”.

B4: FKN-CD Lys54 to Ala mutant (K54A) (domain or fragment, human)
chain: B1 chain with K54A
On to B4, for which the binding result in experiment [3] was “binds”.

The record behind these values is article PMC3518660 (Journal of immunology (Baltimore, Md. : 1950), 2012).
